Experimental data reported in patent US11912782B2, “BCMA monoclonal antibody-drug conjugate” (MedImmune, LLC, priority 2017, dated 2024).

Experiments:
Jurkat = test: In vitro cytotoxicity, CELLTITER-GLO, 96 hours (BCMA-negative line); format: cell-based; settings: T-lymphocyte, BCMA receptor number 0
Procedure: (§1) Killing of multiple myeloma and plasma cell leukemia cell lines by antibody-drug conjugates comprising 15B2GL, or affinity-optimized clones thereof, conjugated to SG3249 was evaluated in vitro using the protocol recommended in the CELLTITER-GLO® kit (Promega, Madison, Wis.). Killing of multiple myeloma and plasma cell leukemia cell lines by the free warhead SG3199 also was evaluated using the protocol recommended in the CELLTITER-GLO® kit (Promega, Madison, Wis.). Briefly, 5×10^3 cells in 80 μL RPMI+10% FBS were added to the inner wells of white-walled 96-well plates (Corning® Costar®, Fisher Scientific, Waltham, Mass.). The following BCMA-expressing cell lines were tested: NCI-H929, EJM, MM.1R. JJN3, OPM-2, MM.1S, U266.B1, and L363. BMCA-negative cell lines Raji and Jurkat also were tested. The antibody-drug conjugates were diluted to a 5× stock (2.5 μg/mL) in RPMI+10% FBS. Treatments were then serially diluted 1:3 in RPMI+10% FBS. […] Luminescence was measured using an EnVision™ Multilabel plate reader (Perkin Elmer, Waltham, Mass.). Data were analyzed and graphed using GraphPad Prism™ software (GraphPad Software, Inc., La Jolla, Calif.), and the half-maximal inhibitory concentration (IC50) was determined.

Raji = test: as above; format: cell-based; settings: Burkitt's lymphoma, BCMA receptor number 0
Procedure: as §1

MM.1S cells = test: Cell killing in the presence of soluble BCMA (conditioned media from Ad293 cells expressing human BCMA); format: cell-based; settings: MM.1S and NCI-H929, sBCMA at levels up to 720 ng/mL
Procedure: Killing of multiple myeloma and plasma cell leukemia cell lines by antibody-drug conjugates comprising 15B2GL, or affinity-optimized clones thereof, conjugated to SG3249 was evaluated in vitro using the protocol recommended in the CELLTITER-GLO® kit (Promega, Madison, Wis.). Killing of multiple myeloma and plasma cell leukemia cell lines by the free warhead SG3199 also was evaluated using the protocol recommended in the CELLTITER-GLO® kit (Promega, Madison, Wis.). Briefly, 5×10^3 cells in 80 μL RPMI+10% FBS were added to the inner wells of white-walled 96-well plates (Corning® Costar®, Fisher Scientific, Waltham, Mass.). The following BCMA-expressing cell lines were tested: NCI-H929, EJM, MM.1R. JJN3, OPM-2, MM.1S, U266.B1, and L363. BMCA-negative cell lines Raji and Jurkat also were tested. The antibody-drug conjugates were diluted to a 5× stock (2.5 μg/mL) in RPMI+10% FBS. Treatments were then serially diluted 1:3 in RPMI+10% FBS. 20 μL of this series was added to the cells in duplicate, resulting in a 12-point dose curve of antibody-drug conjugate ranging from 0.5 μg/mL at the highest concentration to 3×10^−[…] at the lowest. Isotype antibody-drug conjugate (IgG1-SG3249 and IgG1-mc-MMAF) and media-only controls also were included. Plates were incubated at 37° C., 5% CO2 for 96 hours. At the end of the incubation period, 100 μL of the Substrate Solution (Promega, Madison Wis.) was added to each well. Luminescence was measured using an EnVision™ Multilabel plate reader (Perkin Elmer, Waltham, Mass.). Data were analyzed and graphed using GraphPad Prism™ software (GraphPad Software, Inc., La Jolla, Calif.), and the half-maximal inhibitory concentration (IC50) was determined.
The ability of the 15B2GL-SG3249 ADC to kill multiple myeloma cells in vitro in the presence of soluble BCMA (sBCMA) as compared to the I09-5G3249 ADC was evaluated in MM.1S cells using the protocol described above, except that tested cell lines also were treated with BCMA-containing conditioned media collected from Ad293 cells expressing human BCMA (FIGS. 3A and 3B). 15B2GL-SG3249 ADC cell killing in the presence of sBCMA also was compared to ADCs comprising the anti-BCMA antibody J6M0, which is described in U.S. Pat. No. 9,273,141.

NCI-H929 xenograft = test: NCI-H929 subcutaneous xenograft model (Example 5); format: in vivo, mouse; settings: single intravenous dose 0.3 mg/kg, observed for 99 days post tumor implantation
From the text: (§2) Subcutaneous xenograft mouse models of multiple myeloma and plasma cell leukemia were generated by implanting BCMA-expressing multiple myeloma or plasma cell leukemia cell lines (i.e., NCI-H929, JJN-3, MM.1S, and MM.1R) into female CB-17 SCID (C.B-17/IcrHsd-Prkdc-scid) or athymic nude (Foxn1^nu) mice using MATRIGEL™ (BD Biosciences, San Jose, Calif.). Once tumors reached approximately 180 mm^3 (NCI-H929 cells), 190 mm^3 (JJN3 cells), 160 mm^3 (MM.1S cells), or 175 mm^3 (MM.1R cells), mice were randomized based on tumor size and placed into dosing groups and treated with BCMA-targeting ADCs as described below.
Mice were treated with either a single intravenous dose of the ADCs 15B2GL-SG3249, I09-5G3249, L15-SG3249 at 0.3 mg/kg or dosed intravenously with J6M0-mc-MMAF weekly at a dose of 0.3 mg/kg for 2 weeks. Control mice were left untreated.

JJN3 xenograft = test: JJN3 subcutaneous xenograft model; format: in vivo, mouse; settings: single intravenous dose 1 mg/kg, observed for 104 days post tumor implantation
From the text: as §2
Mice were treated with either a single intravenous dose of 15B2GL-SG3249, 109-SG3249, and L15-SG3249 ADCs at 1 mg/kg, or dosed intravenously with J6M0-mc-MMAF ADC weekly at a dose of 1 mg/kg for 3 weeks. Control mice were left untreated.

MM.1S xenograft = test: MM.1S subcutaneous xenograft model (Example 5); format: in vivo, mouse; settings: single intravenous dose 1 mg/kg, observed for 99 days post tumor implantation
From the text: as §2
Mice were treated with either a single intravenous dose of 15B2GL-SG3249, 109-SG3249, L15-SG3249 ADCs at 1 mg/kg or dosed intravenously with J6M0-mc-MMAF twice weekly at a dose of 1 mg/kg for 4 weeks. Control mice were left untreated.

MM.1R xenograft = test: MM.1R subcutaneous xenograft model; format: in vivo, mouse; settings: single intravenous dose 1 mg/kg, observed for 109 days post tumor implantation
From the text: as §2
Mice were treated with either a single intravenous dose of 15B2GL-SG3249 at 1 mg/kg or dosed intravenously with J6M0-mc-MMAF weekly at a dose of 3 mg/kg for 4 weeks. Control mice were left untreated.

[1] = system: MM stem cells (clonogenic cells in MM bone marrow biopsies); test: Clonogenic (colony formation) assay on MM patient bone marrow samples; format: cell-based, human
Procedure: In particular, cells were counted using a ViCELL™ counter (Beckmann-Coulter Life Sciences, Indianapolis, Ind.) and resuspended in IMDM+2% FBS at 10-fold higher density than required for plating. METHOCULT™ H4434 Classic (StemCell Technologies, Inc., Vancouver, BC, Canada) was mixed with 2000 cells per mL for MM263, MM284, and MM276, and 4000 cells per mL for MM277 following the manufacturer's instructions. 25-400 ng per mL of the test ADCs 15B2GL-SG3249 and J6M0-mc-MMAF was then added to appropriate tubes. A control IgG1-SG3249 antibody was added at only the high dose of 400 ng per mL. All tubes were vortexed thoroughly to mix and then allowed to sit undisturbed, allowing air bubbles to rise to the top. Once the bubbles had risen, 400 μL was removed with a 16-guage blunt end needle and carefully plated into one well of a 24-well ultralow attachment plate (VWR, Radnor, Pa.). Each treatment was plated in duplicate in the inner wells of the plate. PBS was added to the outer wells and the plate was incubated at 37° C. for 7-10 days. Colonies were counted by eye with documentation of colony formation by scanning plates on a Celigo® Image Cytometer (Nexcelom Biosciences, Lawrence, Mass.).

B1: 15B2GL-SG3249: ADC: 15B2GL monoclonal antibody site-specifically conjugated to the PBD payload SG3249 (conjugate)
VH: EVQLVESGGGLVKPGGSLRLSCAASGFTFRSYSMNWVRQAPGKGLEWVSSISGSSNYIYYADSVKGRFTISRDNAKNSLYLQMNSLRAEDTAVYYCARGGNYYVEYFQYWGQGTLVTVSS
VL: EIVLTQSPGTLSLSPGERATLSCRASQYISSNYLAWYQQKPGQAPRLLIYGASNRATGIPDRFSGSGSGTDFTLTISRLEPEDFAVYYCQQYGSSPITFGQGTKLEIK
Jurkat
  IC50: >0.5 µg/mL
Raji
  IC50: >0.5 µg/mL
MM.1S cells
  tumor cells killed (average): 95%
NCI-H929 xenograft
  tumor regrowth: no evidence of tumor regrowth
JJN3 xenograft
  tumor regrowth: no evidence of tumor regrowth
MM.1S xenograft
  tumor regrowth: no evidence of tumor regrowth
MM.1R xenograft
  tumor regrowth: no evidence of tumor regrowth
[1]; patient sample MM263, 400 ng/mL
  colonies killed / reduction in colony formation: 100%
[1]; patient sample MM276, 400 ng/mL
  colonies killed / reduction in colony formation: 87.5%
[1]; patient sample MM277, 400 ng/mL
  colonies killed / reduction in colony formation: 91%
[1]; patient sample MM284, 400 ng/mL
  colonies killed / reduction in colony formation: 100%
